Source: publication PMC7679967

Target: human Hsp90β (HSP90AB1) (human) (UniProt P08238)
Experiment: SEC-MALS

Chain of human Hsp90β (HSP90AB1), P08238 1-724 (natural protein; other documents disagree on this pair) (P08238 whole entry): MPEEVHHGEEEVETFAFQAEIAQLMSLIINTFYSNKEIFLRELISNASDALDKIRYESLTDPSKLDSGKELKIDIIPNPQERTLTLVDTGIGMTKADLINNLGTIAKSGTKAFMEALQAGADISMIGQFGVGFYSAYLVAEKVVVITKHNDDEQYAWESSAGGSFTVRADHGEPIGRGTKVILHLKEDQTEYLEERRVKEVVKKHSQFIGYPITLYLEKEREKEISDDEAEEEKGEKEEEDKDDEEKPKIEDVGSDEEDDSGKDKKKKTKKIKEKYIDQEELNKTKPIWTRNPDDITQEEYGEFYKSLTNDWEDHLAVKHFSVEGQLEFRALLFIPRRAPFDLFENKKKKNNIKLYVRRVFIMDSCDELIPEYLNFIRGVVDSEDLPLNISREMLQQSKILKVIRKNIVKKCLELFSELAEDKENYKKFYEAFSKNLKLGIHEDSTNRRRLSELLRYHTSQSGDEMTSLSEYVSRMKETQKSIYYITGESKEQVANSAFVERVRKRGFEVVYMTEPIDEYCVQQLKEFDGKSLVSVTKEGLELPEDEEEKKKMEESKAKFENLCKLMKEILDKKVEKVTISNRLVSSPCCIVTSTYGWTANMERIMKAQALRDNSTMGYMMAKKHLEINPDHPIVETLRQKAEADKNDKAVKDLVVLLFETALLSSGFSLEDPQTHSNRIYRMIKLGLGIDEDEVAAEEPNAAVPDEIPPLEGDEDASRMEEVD

## human Hsp90β (HSP90AB1), P08238 1-724 (natural protein; other documents disagree on this pair)
  stoichiometry N: 2
